Holding throughout (type): biochemical
What all share (design): His6 (N); made in house; host or cells: E. coli Rosetta 2 (DE3)pLysS, plasmid pET28a hctThrRS

The target of assay [1] is T1, TARS (Homo sapiens, UniProt P26639).
T1 sequence (P26639 1-723): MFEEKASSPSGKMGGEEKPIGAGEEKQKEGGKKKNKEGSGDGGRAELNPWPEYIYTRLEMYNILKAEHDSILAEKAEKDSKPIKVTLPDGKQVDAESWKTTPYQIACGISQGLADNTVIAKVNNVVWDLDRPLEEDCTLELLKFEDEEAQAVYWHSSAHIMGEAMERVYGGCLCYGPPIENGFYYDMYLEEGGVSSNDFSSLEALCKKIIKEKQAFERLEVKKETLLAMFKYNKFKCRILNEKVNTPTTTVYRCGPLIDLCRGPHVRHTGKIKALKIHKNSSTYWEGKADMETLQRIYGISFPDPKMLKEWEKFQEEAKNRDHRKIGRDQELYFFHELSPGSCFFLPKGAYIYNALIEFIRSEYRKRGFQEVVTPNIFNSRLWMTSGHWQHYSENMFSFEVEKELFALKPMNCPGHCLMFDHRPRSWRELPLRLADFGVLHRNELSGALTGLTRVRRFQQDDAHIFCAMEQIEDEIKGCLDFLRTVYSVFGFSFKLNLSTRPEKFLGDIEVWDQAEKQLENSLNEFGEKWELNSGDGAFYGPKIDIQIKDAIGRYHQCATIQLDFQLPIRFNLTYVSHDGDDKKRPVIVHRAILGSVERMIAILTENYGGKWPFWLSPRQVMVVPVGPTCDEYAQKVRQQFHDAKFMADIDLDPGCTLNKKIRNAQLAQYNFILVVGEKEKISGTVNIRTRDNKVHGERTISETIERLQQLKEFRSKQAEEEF
The assay can be described thus: GTPase (GTP hydrolysis) assay.

Assay [2] has as its target T1, TARS. Briefly: Ap4G formation assay (TLC, [α-32P]-GTP). The note with it: 2 mM ATP, 2 mM threonine, 2 mM GTP.
Assay [3] deals with T1, TARS. Briefly: Ap4A formation assay (TLC, [α-32P]-ATP). The note with it: 5 μM enzyme, 2 mM threonine, 2 mM ATP.
[4] abbreviates: substrate added to GTPase reaction.

In the case of `Nc1ncnc2c1ncn2[C@@H]1O[C@H](COP(=O)(O)OP(=O)(O)OP(=O)(O)O)[C@@H](O)[C@H]1O` [ATP], the “decrease in TARS GTPase activity” value at TARS [1] (setting [4]) amounted to 77%.
Consider `C[C@@H](O)[C@H](N)C(=O)O` [threonine], for which, at TARS [1] (setting [4]), the “increase in TARS GTPase activity” value is listed as 26%.

B1: E. coli ThrRS: bacterial (E. coli) threonyl-tRNA synthetase (protein, UniProt P0A8M3 1-642, looked up)
Threonine--tRNA ligase: MPVITLPDGSQRHYDHAVSPMDVALDIGPGLAKACIAGRVNGELVDACDLIENDAQLSIITAKDEEGLEIIRHSCAHLLGHAIKQLWPHTKMAIGPVIDNGFYYDVDLDRTLTQEDVEALEKRMHELAEKNYDVIKKKVSWHEARETFANRGESYKVSILDENIAHDDKPGLYFHEEYVDMCRGPHVPNMRFCHHFKLMKTAGAYWRGDSNNKMLQRIYGTAWADKKALNAYLQRLEEAAKRDHRKIGKQLDLYHMQEEAPGMVFWHNDGWTIFRELEVFVRSKLKEYQYQEVKGPFMMDRVLWEKTGHWDNYKDAMFTTSSENREYCIKPMNCPGHVQIFNQGLKSYRDLPLRMAEFGSCHRNEPSGSLHGLMRVRGFTQDDAHIFCTEEQIRDEVNGCIRLVYDMYSTFGFEKIVVKLSTRPEKRIGSDEMWDRAEADLAVALEENNIPFEYQLGEGAFYGPKIEFTLYDCLDRAWQCGTVQLDFSLPSRLSASYVGEDNERKVPVMIHRAILGSMERFIGILTEEFAGFFPTWLAPVQVVIMNITDSQSEYVNELTQKLSNAGIRVKADLRNEKIGFKIREHTLRRVPYMLVCGDKEVESGKVAVRTRRGKDLGSMDVNEVIEKLQQEIRSRSLKQLEE
Molecule B1 registered an Ap4G formation rate in the assay with TARS [2] of 0.5612 Ap4G/active site/min. Besides, the GTP hydrolysis rate entry with TARS [1] (2 mM GTP) is given as “not”. The Ap4A production rate in the assay with TARS [3] is listed as 0.5612 Ap4A/active site/min.

For the origin of these results see patent US10125358B2, “Methods and compounds for increasing threonyl-tRNA synthetase activity” (UNIVERSITY OF VERMONT AND STATE AGRICULTURAL COLLEGE, priority 2012, dated 2018).
